Reference: the DeepSol protein solubility set

Test: soluble on expression in E. coli; label from the status in PepcDB or PDB records

| Sequence | soluble on expression in E. coli |
| --- | --- |
| HHMKLYIMPGACSLADHILLRWSGSSFDLQFLDHQSMKAPEYLALNPSGAVPALQVGDWVLTQNAAILNYITDIAPAERGLSGDGSLKARAEINRWIAFSNSDVHPMYWALFGGTAYLQDPQMIARSQDNARQKLRVLYQRADAHLKHHNWLANGQRSGADAYLYVTLRWAKKVGVDLSSLDALSAFFERMEADPGVQAALQAEGLI | soluble |
| MKELTNEELRGIQLEQLKYIDRICRENGIEYTLAGGSLIGAIRHGGYIPWDDDIDIELTRPHYDHLISVLMDQLPNEKYALLHYKVRETYLPFAKLYDTRTSFTSKIDNLNRGTGVFLDIFPMDILPDNEEERQVFKKEFLKKAIQLTASNPHGLDFASSSKKIYFWGKLVLWMPQHIRFYGKYRILAEKLDEFMQKYRNSDNQLISYLYTGYKKAIFPKEIWEEYEDVKFEGLTARKLKNHEEYLTRQYGDYMKLEHHHHHH | not soluble |
| MSSRKGTRSSRIVTLERSANSSLSNNGGGDDSFGSTLLETSRLQEKDHLTSLNSRLATYIDKVRQLEQENNRLQVQIRDIEVVEKKEKSNLADRFEAEKARLRRALDSAQDELAKYRIEYDAAKVEVKKLKPQVEKLERELAGAEEQALHAQSIADQSQAKQKTLQARNDKLVVENDDLKKQNITLRDTVEGLKKAVEDETLLRTAANNKIKALEEDLAFALQQHKGELEEVRHKRQVDMTTYAKQINDEYQSKLQDQIEEMRAQFKNNLHQNKTAFEDAYKNKLNAARERQEEAVSEAIHLRARVRDLETSSSGNASLIERLRSELDTLKRSFQEKLDDKDARIAELNQEIERMMSEFHDLLDVKIQLDAELKTYQALLEGEEERLNLTQEAPQNTSVHHVSFSSGGASAQRGVKRRRVVDVNGEDQDIDYLNRRSKLNKETVGPVGIDEVDEEGKWVRVANNSEEEQSIGGYKLVVKAGNKEASFQFSSRMKLAPHASATVWSADAGAVHHPPEVYVMKKQQWPIGDNPSARLEDSEGDTVSSITVEFSESSDPSDPADRCSIM | not soluble |
| MAHHHHHHMMRIKQKAFVGKKICIAWEVLHDGKGWKAQGKALQILRFYAFSSEVYLMCRIRDADDKKQICNLVKAVDGIERHRVLFCTTEKGYEAFTRQIDPSLLITNNAAQVAFLKRVIQTLVLVGGDGVVASNVACVPSVEAIAVDLE | not soluble |
| MEVLGITEKALNYYRENVKDNKTITPDQALLKMIRNVLLVKETHPERVKKRLFCTEYAYGNMIIKVNRKKQVFEIVNKSGCFSDQNDWKFPKRRYIELSKELGIKDCKFRKITYSKKNHNKQKLEHHHHHH | soluble |
| MSLSTNLITTGIGTEQLEQLLSEYFPTYQISRIDRDSTGRKGALEHHLNAIQTGKSQILIGTQMLAKGHHFPNVTLVALVNVDSALFSTDFRAEERLAQLYLQVAGRAGRAEKTGEVVLQTHYPDHPLLKCLLKDGYNAFAEEALKMRQVMALPPFTAQVLFRATGKQSDKVEHLLQNLTAYFQHKSVELGIEGIQISPPFSAIVAKKAGYYRWLLLIQHQSRSAIQQLLNVFDQEKSALNLPANIRLSLDVDPYDMSEGHHHHHH | not soluble |
| MNQLNWKDVTPSFEQYEDILKSASSLPKKKFVELQPRLLATVERFKKIKGLTRVLVINCADNTVYRKFICDVVTDGLEPTIMTESLDAKLLFDRYSVDLKGDVVVEAGLLSKAN | not soluble |
| MITLPTGTKIWIIAGITDMRCGFNGLASKVQNTLKDDPFSGHIFVFRGRSGKMVKILWADRDGLCLFAKRLAGDPGRESAPDASSVIHATGGDRVATSQTDRTAWHPDITRDKTRE | not soluble |
| MGHHHHHHSHMLLPRGLDIKQEELGDLVDKEMAATSAAIETATARIEEMLSKSRAGDTGVKLEVNERILGCCTSLMQAIQVLIVASKDLQREIVESGRGTASPKEFYAKNSRWTEGLISASKAVGWGATVMVDAADLVVQGRGKFEELMVCSHEIAASTAQLVAASKVKADKDSPNLAQLQQASRGVNQATAGVVASTISGKSQIEETDNMDFSSMTLTQI | soluble |
| MSQGFKTEADVMRNTAHRVDDTNQEVSAELSRLRSIVDGVRASWEGTAQVSFDNLMQRWDASAKGLQDALQSISDNIRGNATSFENVEADNQSAFSAVGGQGLAL | not soluble |
| MGCVSSTSRSTGYYSGYESHEEPRAASRPTNSDDRGYETDSEPSSGNLIPNARSVYSESVLWHGTSMQSKIDLRSKGFDAGRKTGGATAGGNANMFMNLSREAQSETRRHHYLSSSQKEAKDFAMFADTSNPTLVRTIGVRNNLSLITDPRTGGTALMTDQSIPRKFVLGSKSSAPGENAKVFRDEMRAAGHNVSTKQAGELLREVQSDS | not soluble |
| NIGSGTDEKTATARAKVVDWCNELVIASPSTKCELLAKVQETVLGSCAELAEEFLESVLSLAHDSNMEVRKQVVAFVEQVCKVKVELLPHVINVVSMLLRDNSAQVIKRVIQACGSIYKNGLQYLCSLMEPGDSAEQAWNILSLIKAQILDMIDNENDGIRTNAIKFLEGVVVLQSFADEDSLKRDGDFSLADVPDHCTLFRREKLQEEGNNILDILLQFHGTTHISSVNLIACTSSLCTIAKMRPIFMGAVVEAFK | soluble |
| MGHHHHHHGGHMSLDMKLQQVQVLKPQLTQELRQAITLLGYHSAELAEYIDELSLENPLIERKETDTPPLSYHKTNKNRMNAQEAGLQLSNPQKTLQDALKQQSLDMNLTNTEKKIFNYLIHSLDSNGYLEEDIEEAARRLSVSAKEAEAVLAKLQSLEPAGIGARSLQECILLQLQRLPNRNEQAEMLVSAHFDAFAQKKWKTLSVETGIPLHTIQDISDDIAALHPRPGLLFARPEQDVYIEPDIFITVKNGHIAAELNTRSFPEIDLHPQYRTLLSSGSCQDTVSYLSAKYQEWRWLSRALRQRKQTITRIINELITRQKDFFLKGRSAMKPLTLREVADCLSLHESTVSRAIKGKTIQTPYGLFEMKLFFSAKAEASGDGDASNYAVKTHLENLINQEDKTKPLSDQKLVDLLYEQHGIQISRRTVAKYRDQMNIPSSAARKRYKEGGS | soluble |
| MGSDKIHHHHHHMKKIAVLTSGGDAPGMNAAVRAVVRYGVRQGLEVIGVRRGYSGLIDGDFVKLEYKDVAGITEKGGTILRTSRCEEFKTEEGRELAAKQIKKHGIEGLVVIGGEGSLTGAHLLYEEHKIPVVGIPATIDNDIGLTDMCIGVDTCLNTVMDAVQKLKDTASSHERAFIVEVMGRHSGYIALMAGLVTGAEAIIVPEIPVDYSQLADRILEERRRGKINSIIIVAEGAASAYTVARHLEYRIGYETRITILGHVQRGGSPTAFDRRLALSMGVEAVDALLDGEVDVMIALQGNKFVRVPIMEALSTKKTIDKKLYEIAHMLS | not soluble |
| RMLTDRRVHDADFLTDELGLTSLGLVNHQHHHSMKKQALNLNGGYHTHNDRTSSQAMKRV | not soluble |
| MGSDKIHHHHHHLTDMLAPRVVARLRGVTKSFDGTTVVRNVDLDFRSGEVHVLAGENGAGKSTLTKLLAGIHQPDHGTVEINGQMGPFDVKSSRTAGVTLVHQELLIAPNLTVADNLAMGQENRNRFRGLDRTATLENARAQLAHIGATFPVTMRAEELTVADHQQIEIARALAQKPKILILDEPTSALSSAETERLLRIVDELRRNGTSVIYITHRMEEIEALADIVSIMRDGSLVETMPKAEATPDAIVLRMVGRKIDSLFTAERPEPGRVVLRVEQLTNGKDIGPIDLDVRAGEVVGIGGLIGSGRSEFVRLIFGADRASSGTVSVDGSPVNVTGPGSAVRAGIALLPESRKTQGLVLDQSIAANIVLASLGHISSAGVVTPAAVKRVASKAQKRLGIKSASLGQEVTTLSGGNQQKVLFAKWLETKPKVLILDEPTRGVDVGAKAEIYQIINECAHAGVAVLVISSELPELIGLSSRVHVMREGRLVAEIDAQSLTEEAVMNHAFGIAQATQA | not soluble |
| TNAKASKRVYITFTGYDKKPSIDNLKKLDMSITSNPSKCTHLIAPRILRTSKFLCSIPYGPCVVTMDWINSCLKTHEIVDEEPYLLNDPEKELELGCTLESALKRARAQGPSLLEDYVVYLTSKTVAPENVPAVISIVKSNGGVCSTLNVYNKRLARHLEDGNVVLITCNEDSHIWTNFLDNASQNKTIFLQNYDWLIKTVLRQEIDVNDRIADEFARAV | soluble |
| MKTAEAAKGRWPEILEHFDLPPITGKNHYRGECPVCGARGKFRIDDRDGAGTWICVCGSGDGMKLVTLTQGKPFNEICTEIDRLIGNDYQRVKIPVNSSATSLRKRVLSKFSKLEALRGTSGAAYLNSRGIFNLPAEAIRFNARQRHNGCVFQSLYSLATDDKGELCYLHQTLLDGAKKADIGSSSKRLKSLQEDNYLDHARSVAIRMFPVASTLGIAEGIETALSAHQIYKVNTWATINSGFMKKFRVPAGVLHLIIFADRDENSATGLAAAYECAHANLMAKNDLQRVSVYWPDHGDFNNMLMNGDQVRELVFHKKKVAA | not soluble |
| GWAAGDYPVVTTDHLKAMIDEKRDFLLIDARTPEEYAEAHIVGAVNVPEKTFDSASAQLPADKAKLIVLYCNGIKCGKSKRVAKKVEPLGYTAIAVYNEGMPVWEERGLPIVKGAGYGRK | not soluble |
| MSLGSVFRHIEGGMLFPQGSVTCIGAFDGLHLGHRALVRHALQRATALHLPTVALSFEPLPREYFASTTPPPRLTLTRAKIQGLHRFGADSVGLLRFDSRLASMSPQTFVERVLLGRLGVREVLIGPQFRFGHQRSGDIALLQRLGLEHGFTATEIPPLHLNNERISATKIRALLAAGDFAHAAELLGRPYMIGGRVVRGQQLGSTLGYPTANLRFPHPIALSGIYATWVHGIFEQPWPSVSSFGTRPTVAGVEPLLEVHLFDFHSDLYGRRIDVEFIAKLRDEETFPDLHTMTTQIHRDAQQARHILSEHRLRAEGHHHHHH | not soluble |
| MKQVLVIKNERSSAKKIVSGLTQEGYFILKLHNENEGLNIIYEQDWDIIILDWDSLSISGPEICRQIRLVKTTPIIIVTDNISSKDCVAGLQAGADDYIRKPFAKEELVARVQAILRRSDCNQQKEINFFQFKDLFVDASSNIVKKGGKNLSLTKREYDLLVFLIKNKNTILSREMLLNQVWGYNIVVNPNVVDLYIGYVRKKLKCEKKERYIQTIHGRGYSMIE | not soluble |
| MADIYPLGKTHTEELNEIIVESAKEIAEPDTTMIQKLIDEHNPEPLLKGVRYYMCENDIEKKRRTYYDAAGQQLVDDTKTNNRTSHAWHKLFVDQKTQYLVGEPVTFTSDNKTLLEYVNELADDDFDDILNETVKNMSNKGIEYWHPFVDEEGEFDYVIFPAEEMIVVYKDNTRRDILFALRYYSYKGIMGEETQKAELYTDTHVYYYEKIDGVYQMDYSYGENNPRPHMTKGGQAIGWGRVPIIPFKNNEEMVSDLKFYKDLIDNYDSITSSTMDSFSDFQQIVYVLKNYDGENPKEFTANLRYHSVIKVSGDGGVDTLRAEIPVDSAAKELERIQDELYKSAQAVDNSPETIGGGATGPALEKLYALLDLKANMAERKIRAGLRLFFWFFAEYLRNTGKGDFNPDKELTMTFTRTRIQNDSEIVQSLVQGVTGGIMSKETAVARNPFVQDPEEELARIEEEMNQYAEMQGNLLDDEGGDDDLEEDDPNAGAAESGGAGQVS | soluble |
| SSPFLYLVLLVLGLHATIHCASPEGKVTACHSSQPNATLYKMSSINADFAFNLYRRFTVETPDKNIFFSPVSISAALVMLSFGACCSTQTEIVETLGFNLTDTPMVEIQHGFQHLICSLNFPKKELELQIGNALFIGKHLKPLAKFLNDVKTLYETEVFSTDFSNISAAKQEINSHVEMQTKGKVVGLIQDLKPNTIMVLVNYIHFKAQWANPFDPSKTEDSSSFLIDKTTTVQVPMMHQMEQYYHLVDMELNCTVLQMDYSKNALALFVLPKEGQMESVEAAMSSKTLKKWNRLLQKGWVDLFVPKFSISATYDLGATLLKMGIQHAYSENADFSGLTEDNGLKLSNAAHKAVLHIGEKGTEAAAVPEVELSDQPENTFLHPIIQIDRSFMLLILERSTRSILFLGKVVNPTEA | not soluble |
